These results are taken from US20210340276A1 (Astellas, published 2021).

In the experiment the target is T1, human cancer-specific MUC1 (on breast cancer cell line T-47D cells) (human, UniProt P15941 24-1255, cancer-specific incomplete O-glycosylation (T, Tn, 2,3ST) of the tandem repeat, as described in the background).
T1 construct: whole, on cells; cells fixed in formalin; also called Mucin 1
The experiment can be described thus: Cell ELISA on formalin-fixed T-47D cells, HRP anti-human Igκ detection, luminescence; reference 1B2 Fab. The protocol: Specifically, breast cancer cell line T-47D cells (purchasable from ATCC; HTB-133) expressing human cancer-specific MUC1 were inoculated at 0.75×10⁴ cells per well to a 96-well ELISA plate coated with collagen I, and cultured overnight. […] Then, a horseradish peroxidase (HRP)-labeled goat anti-human Igκ antibody (Southern Biotechnology Associates, Inc.) was reacted as a secondary antibody. ECL Prime Western Blotting Detection Reagent (GE Healthcare Japan Corp.) was added thereto for luminescence, and the degree of the luminescence was examined.
(An ELISA detects its analyte on a solid surface through an enzyme-linked reagent.)

B1: P10-1 Fab (Fab, V domains shown)
VH: QVQLVQSGAEVKKPGASVKVSCKASGYTFTNYGLSWVRQAPGQGLEWMGENHPGSGIIYHNEKFRGRVTLTADRSTSTAYMELSSLRSEDTAVYYCARSSGTRGFAYWGQGTLVTVSS
VL: DVVMTQTPLSLSVTPGQPASISCRSSQSIVHSNGNTYLEWYLQKPGQSPQLLIYRVSNRFSGVPDRFSGSGSGTDFTLKISRVEAEDVGVYYCFQGSHGPWTFGQGTKLEIKR
notes: expressed in Expi293F cells, purified with KappaSelect; also called anti-human MUC1 antibody Fab fragment P10-1
Take B1: the “fold binding activity compared to 1B2 Fab” value is at least 10 times.

B2: P10-2 Fab (Fab, V domains shown)
VH: QVQLVQSGAEVKKPGASVKVSCKASGYTFTNYGLSWVRQAPGQGLEWMGENHPGSGIIYHNEKFRGRVTLTADRSTSTAYMELSSLRSEDTAVYYCARSSGTRGFDYWGQGTLVTVSS
VL: DVVMTQTPLSLSVTPGQPASISCRSSQSIVHSNGNTYLEWYLQKPGQSPQLLIYRVSNRFSGVPDRFSGSGSGTDFTLKISRVEAEDVGVYYCFQGSHGPWTFGQGTKLEIKR
modifications: heavy chain N-terminal glutamine modified into pyroglutamic acid in a great majority of purified antibodies (Example 2)
notes: expressed in Expi293F cells, purified with KappaSelect; also called anti-human MUC1 antibody Fab fragment P10-2
Take B2: the “fold binding activity compared to 1B2 Fab” value is at least 10 times.
